From publication PMC9482650, “Quantitative fragmentomics allow affinity mapping of interactomes” (Nature Communications, 2022)

Columns and labels:
Test in all cases: holdup assay
Set-up in all cases: key: below the threshold = too weak to quantify, mostly under pKd 3.1 to 4
Conditions in all cases: plain residues with an end cap or a label only (N-terminal biotin on a linker: ado-ado)
[1] = target: T1, APBA3_1, O96018
T1 sequence (O96018 389-490, limits assumed, looked up): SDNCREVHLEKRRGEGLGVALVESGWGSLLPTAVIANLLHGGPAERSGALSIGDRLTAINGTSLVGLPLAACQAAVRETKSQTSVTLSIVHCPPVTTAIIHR

[2] = target: T2, ARHGAP21, Q5T5U3
T2 sequence (Q5T5U3 45-169, limits assumed, looked up): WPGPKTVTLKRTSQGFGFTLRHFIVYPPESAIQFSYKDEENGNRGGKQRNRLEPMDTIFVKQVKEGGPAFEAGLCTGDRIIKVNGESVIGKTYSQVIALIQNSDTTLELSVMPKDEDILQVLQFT

[3] = target: ARHGEF12, Q9NZN5-2
[4] = target: T3, CARD11, Q9BXL7
T3 sequence (Q9BXL7 662-765, limits assumed, looked up): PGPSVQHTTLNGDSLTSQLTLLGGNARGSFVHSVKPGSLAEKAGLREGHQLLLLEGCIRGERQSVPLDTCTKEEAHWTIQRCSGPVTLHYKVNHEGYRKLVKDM

[5] = target: DLG2_2, Q15700
[6] = target: DLG4_1, P78352
[7] = target: T4, DVL3, Q92997
T4 sequence (Q92997 244-331, limits assumed, looked up): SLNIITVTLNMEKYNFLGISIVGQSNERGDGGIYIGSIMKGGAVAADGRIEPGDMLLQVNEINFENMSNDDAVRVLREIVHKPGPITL

[8] = target: FRMPD2_3, Q68DX3
[9] = target: FRMPD4, Q14CM0
[10] = target: GORASP1, Q9BQQ3
[11] = target: GRIP2_5, Q9C0E4
[12] = target: Inadl_10, Q8NI35
[13] = target: Inadl_6, Q8NI35
[14] = target: Inadl_9, Q8NI35
[15] = target: LDB3, O75112
[16] = target: LNX1_1, Q8TBB1
[17] = target: LNX1_2, Q8TBB1
[18] = target: MAGI1_1, Q96QZ7
[19] = target: MAGI2_2, Q86UL8
[20] = target: MAGI2_3, Q86UL8
[21] = target: MAGI2_4, Q86UL8
[22] = target: MAGI3_2, Q5TCQ9
[23] = target: T5, MPDZ_10, O75970
T5 sequence (O75970 1624-1722, limits assumed, looked up): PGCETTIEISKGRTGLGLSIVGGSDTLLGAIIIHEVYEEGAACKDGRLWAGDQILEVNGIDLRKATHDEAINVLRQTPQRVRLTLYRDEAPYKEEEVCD

[24] = target: T6, MPP7, Q5T2T1
T6 sequence (Q5T2T1 134-230, limits assumed, looked up): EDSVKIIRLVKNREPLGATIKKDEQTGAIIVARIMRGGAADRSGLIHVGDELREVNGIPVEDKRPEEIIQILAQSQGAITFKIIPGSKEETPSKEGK

[25] = target: T7, NHERF3_4, Q5T2W1
T7 sequence (Q5T2W1 373-468, limits assumed, looked up): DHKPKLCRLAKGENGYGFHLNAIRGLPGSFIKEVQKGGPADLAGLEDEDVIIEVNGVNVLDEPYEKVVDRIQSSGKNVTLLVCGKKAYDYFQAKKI

[26] = target: NOS1, P29475
[27] = target: PDZRN4_1, Q6ZMN7
[28] = target: PTPN3, P26045
[29] = target: T8, RADIL, Q96JH8
T8 sequence (Q96JH8 971-1071, limits assumed, looked up): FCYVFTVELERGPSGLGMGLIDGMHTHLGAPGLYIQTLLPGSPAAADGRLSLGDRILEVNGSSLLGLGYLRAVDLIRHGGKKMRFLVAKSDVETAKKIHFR

[30] = target: SCRIB_3, Q14160
Sequence of SCRIB_3, Q14160 (Q14160 999-1103): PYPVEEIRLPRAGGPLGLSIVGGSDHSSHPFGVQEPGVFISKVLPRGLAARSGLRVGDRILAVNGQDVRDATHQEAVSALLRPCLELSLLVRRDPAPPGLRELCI

Sequence of GORASP1, Q9BQQ3 (Q9BQQ3 1-208): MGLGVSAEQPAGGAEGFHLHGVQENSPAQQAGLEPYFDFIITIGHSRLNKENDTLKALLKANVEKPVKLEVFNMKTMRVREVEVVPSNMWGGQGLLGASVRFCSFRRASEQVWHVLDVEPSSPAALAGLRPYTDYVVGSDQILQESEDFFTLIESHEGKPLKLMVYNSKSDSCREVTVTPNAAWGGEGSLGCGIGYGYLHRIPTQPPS
Sequence of Inadl_9, Q8NI35 (Q8NI35 1530-1615): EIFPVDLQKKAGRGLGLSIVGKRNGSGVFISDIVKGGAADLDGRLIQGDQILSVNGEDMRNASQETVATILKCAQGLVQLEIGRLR
Sequence of PDZRN4_1, Q6ZMN7 (Q6ZMN7 213-318): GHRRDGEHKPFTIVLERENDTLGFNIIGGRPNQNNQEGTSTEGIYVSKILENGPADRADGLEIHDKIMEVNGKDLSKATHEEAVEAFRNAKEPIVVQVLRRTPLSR
Sequence of DLG2_2, Q15700 (Q15700 189-283): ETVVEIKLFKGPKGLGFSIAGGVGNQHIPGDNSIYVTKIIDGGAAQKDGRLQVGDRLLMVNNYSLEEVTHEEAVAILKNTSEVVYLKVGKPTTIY
Sequence of GRIP2_5, Q9C0E4 (Q9C0E4 544-642): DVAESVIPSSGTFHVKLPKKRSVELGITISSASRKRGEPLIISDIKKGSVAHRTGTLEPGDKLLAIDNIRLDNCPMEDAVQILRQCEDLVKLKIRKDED
Sequence of MAGI2_4, Q86UL8 (Q86UL8 772-865): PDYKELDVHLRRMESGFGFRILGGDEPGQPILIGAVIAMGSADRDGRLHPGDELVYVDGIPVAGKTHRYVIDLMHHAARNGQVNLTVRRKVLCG
Sequence of MAGI2_2, Q86UL8 (Q86UL8 410-522): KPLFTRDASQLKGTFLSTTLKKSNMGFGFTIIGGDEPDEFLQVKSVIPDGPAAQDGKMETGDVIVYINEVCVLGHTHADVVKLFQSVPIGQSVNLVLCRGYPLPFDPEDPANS
Sequence of Inadl_10, Q8NI35 (Q8NI35 1673-1763): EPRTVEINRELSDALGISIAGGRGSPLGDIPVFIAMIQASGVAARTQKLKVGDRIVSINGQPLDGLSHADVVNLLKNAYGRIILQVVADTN
Sequence of MAGI2_3, Q86UL8 (Q86UL8 600-682): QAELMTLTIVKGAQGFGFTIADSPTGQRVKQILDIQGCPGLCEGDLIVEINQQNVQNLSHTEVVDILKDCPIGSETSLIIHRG
Sequence of FRMPD4, Q14CM0 (Q14CM0 67-160): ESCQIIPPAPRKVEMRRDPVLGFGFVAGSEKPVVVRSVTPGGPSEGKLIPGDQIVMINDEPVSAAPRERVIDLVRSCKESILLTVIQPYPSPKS
Sequence of Inadl_6, Q8NI35 (Q8NI35 1058-1167): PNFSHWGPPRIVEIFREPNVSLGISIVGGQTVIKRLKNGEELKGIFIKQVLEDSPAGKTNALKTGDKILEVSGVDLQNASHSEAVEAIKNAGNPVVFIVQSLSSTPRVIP
Sequence of LDB3, O75112 (O75112 1-94): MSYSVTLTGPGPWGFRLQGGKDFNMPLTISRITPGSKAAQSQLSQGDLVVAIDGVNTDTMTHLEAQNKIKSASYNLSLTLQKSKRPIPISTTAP
Sequence of FRMPD2_3, Q68DX3 (Q68DX3 1073-1166): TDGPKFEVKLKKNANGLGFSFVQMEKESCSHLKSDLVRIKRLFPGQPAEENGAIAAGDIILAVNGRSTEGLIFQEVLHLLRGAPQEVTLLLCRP
Sequence of NOS1, P29475 (P29475 9-101): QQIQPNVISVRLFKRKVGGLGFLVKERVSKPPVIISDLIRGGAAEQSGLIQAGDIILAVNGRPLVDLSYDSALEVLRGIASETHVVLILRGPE
Sequence of ARHGEF12, Q9NZN5-2 (Q9NZN5 other isoform, or with tags, fused parts or gaps): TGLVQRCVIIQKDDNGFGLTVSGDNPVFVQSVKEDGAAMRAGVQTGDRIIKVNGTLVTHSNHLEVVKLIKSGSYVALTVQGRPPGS
Sequence of DLG4_1, P78352 (P78352 62-152): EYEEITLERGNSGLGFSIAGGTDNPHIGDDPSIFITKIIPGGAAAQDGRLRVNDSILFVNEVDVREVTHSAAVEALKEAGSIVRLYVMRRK
Sequence of LNX1_2, Q8TBB1 (Q8TBB1 371-470): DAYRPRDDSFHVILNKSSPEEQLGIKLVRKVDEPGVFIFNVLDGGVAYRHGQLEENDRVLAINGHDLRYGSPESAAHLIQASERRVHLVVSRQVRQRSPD
Sequence of LNX1_1, Q8TBB1 (Q8TBB1 261-371): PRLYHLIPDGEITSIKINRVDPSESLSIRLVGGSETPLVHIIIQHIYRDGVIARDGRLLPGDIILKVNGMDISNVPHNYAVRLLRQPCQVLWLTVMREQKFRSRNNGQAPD
Sequence of PTPN3, P26045 (P26045 505-587): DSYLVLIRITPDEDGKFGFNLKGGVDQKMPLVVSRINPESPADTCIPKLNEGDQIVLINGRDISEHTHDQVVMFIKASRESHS
Sequence of MAGI3_2, Q5TCQ9 (Q5TCQ9 398-503): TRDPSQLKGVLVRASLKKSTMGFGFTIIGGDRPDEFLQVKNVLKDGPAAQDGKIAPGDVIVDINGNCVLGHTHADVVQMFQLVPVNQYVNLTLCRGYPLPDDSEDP
Sequence of MAGI1_1, Q96QZ7 (Q96QZ7 1-106): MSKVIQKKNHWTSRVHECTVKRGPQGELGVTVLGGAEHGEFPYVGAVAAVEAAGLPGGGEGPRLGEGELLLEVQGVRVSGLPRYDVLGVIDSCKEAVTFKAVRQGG

In the case of ANGLMQTSKL [SSTR5, P35346], the pKd [1] is reported as “below the threshold”, the pKd [2] is reported as 3.97 and the pKd [3] is reported as 4.62. For the same binder, the pKd [4] was “below the threshold”, the pKd [5] was “below the threshold” and the pKd [6] was “below the threshold”. For the same binder, the pKd [7] was “below the threshold”, the pKd [8] was “below the threshold” and the pKd [9] was 3.69. For the same binder, the pKd [10] was “below the threshold”, the pKd [11] was “below the threshold” and the pKd [12] was “below the threshold”. The pKd [13] was “below the threshold”, the pKd [14] was “below the threshold” and the pKd [15] was “below the threshold”. For the same binder, the pKd [16] was “below the threshold”, the pKd [17] was “below the threshold” and the pKd [18] was “below the threshold”. For the same binder, the pKd [19] was “below the threshold”, the pKd [20] was 3.48 and the pKd [21] was “below the threshold”. For the same binder, the pKd [22] was “below the threshold”, the pKd [23] was “below the threshold” and the pKd [24] was “below the threshold”. For the same binder, the pKd [25] was 4.76, the pKd [26] was “below the threshold” and the pKd [27] was “below the threshold”. For the same binder, the pKd [28] was 4.1, the pKd [29] was “below the threshold” and the pKd [30] was 3.5.

For NVYGTESVKI [GRIA3, P42263], the pKd [1] was “below the threshold”, the pKd [2] was 4.38 and the pKd [3] was “below the threshold”. The pKd [4] was “below the threshold”, the pKd [5] was “below the threshold” and the pKd [6] was “below the threshold”. For the same binder, the pKd [7] was “below the threshold”, the pKd [8] was “below the threshold” and the pKd [9] was “below the threshold”. For the same binder, the pKd [10] was “below the threshold”, the pKd [11] was “below the threshold” and the pKd [12] was “below the threshold”. For the same binder, the pKd [13] was “below the threshold”, the pKd [14] was “below the threshold” and the pKd [15] was “below the threshold”. The pKd [16] was “below the threshold”, the pKd [17] was “below the threshold” and the pKd [18] was “below the threshold”. The pKd [19] was “below the threshold”, the pKd [20] was “below the threshold” and the pKd [21] was “below the threshold”. For the same binder, the pKd [22] was “below the threshold”, the pKd [23] was “below the threshold” and the pKd [24] was “below the threshold”. For the same binder, the pKd [25] was “below the threshold”, the pKd [26] was 3.56 and the pKd [27] was “below the threshold”. For the same binder, the pKd [28] was “below the threshold”, the pKd [29] was “below the threshold” and the pKd [30] was “below the threshold”.

In the case of NASRTRITFV [MCM7, P33993], the pKd [1] is reported as “below the threshold”, the pKd [2] is reported as “below the threshold” and the pKd [3] is reported as 4.46. The pKd [4] was “below the threshold”, the pKd [5] was 4.73 and the pKd [6] was 4.76. For the same binder, the pKd [7] was 3.96, the pKd [8] was “below the threshold” and the pKd [9] was “below the threshold”. For the same binder, the pKd [10] was 4.86, the pKd [11] was “below the threshold” and the pKd [12] was “below the threshold”. For the same binder, the pKd [13] was 4.46, the pKd [14] was 4.11 and the pKd [15] was “below the threshold”. The pKd [16] was 4.3, the pKd [17] was 4.06 and the pKd [18] was “below the threshold”. The pKd [19] was 5.31, the pKd [20] was 4.99 and the pKd [21] was 3.82. For the same binder, the pKd [22] was 5.49, the pKd [23] was 4.29 and the pKd [24] was “below the threshold”. For the same binder, the pKd [25] was 3.53, the pKd [26] was 3.84 and the pKd [27] was “below the threshold”. For the same binder, the pKd [28] was 4.71, the pKd [29] was 5.81 and the pKd [30] was 4.37.

In the case of ETSLVKGIDI [DENND5A, Q6IQ26], the pKd [1] is reported as “below the threshold”, the pKd [2] is reported as 4.25 and the pKd [3] is reported as 4.17. For the same binder, the pKd [4] was “below the threshold”, the pKd [5] was “below the threshold” and the pKd [6] was “below the threshold”. The pKd [7] was “below the threshold”, the pKd [8] was 3.57 and the pKd [9] was “below the threshold”. For the same binder, the pKd [10] was “below the threshold”, the pKd [11] was “below the threshold” and the pKd [12] was “below the threshold”. The pKd [13] was “below the threshold”, the pKd [14] was 3.63 and the pKd [15] was 3.51. The pKd [16] was 3.79, the pKd [17] was “below the threshold” and the pKd [18] was 3.55. The pKd [19] was 3.48, the pKd [20] was “below the threshold” and the pKd [21] was 3.66. The pKd [22] was 4.39, the pKd [23] was “below the threshold” and the pKd [24] was 4.47. For the same binder, the pKd [25] was “below the threshold”, the pKd [26] was 3.52 and the pKd [27] was “below the threshold”. For the same binder, the pKd [28] was “below the threshold”, the pKd [29] was “below the threshold” and the pKd [30] was 3.51.
